Values quoted from earlier work as cited in paper PMC3815026.

What was measured:
[1] = molecular target: C1q (Homo sapiens) (UniProt P02745); experiment: Scatchard
[2] = molecular target: MBL (Homo sapiens) (UniProt P11226); experiment: Scatchard
Sequence of MBL (Homo sapiens) (P11226 21-248): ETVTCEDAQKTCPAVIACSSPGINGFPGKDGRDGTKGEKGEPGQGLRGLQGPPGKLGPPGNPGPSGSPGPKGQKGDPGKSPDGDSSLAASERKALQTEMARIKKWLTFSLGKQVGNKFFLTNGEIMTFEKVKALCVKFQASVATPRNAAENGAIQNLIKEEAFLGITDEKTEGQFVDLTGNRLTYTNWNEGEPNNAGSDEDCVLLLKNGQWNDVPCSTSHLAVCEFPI

Sequence of serglycin (myeloma cell-derived) (P10124 28-158): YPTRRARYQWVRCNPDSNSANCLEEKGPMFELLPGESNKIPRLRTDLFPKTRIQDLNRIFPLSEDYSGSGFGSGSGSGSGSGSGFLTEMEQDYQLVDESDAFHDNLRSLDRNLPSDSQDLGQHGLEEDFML
Sequence of C1q (Homo sapiens) (P02745 23-245, chain 1 of 3): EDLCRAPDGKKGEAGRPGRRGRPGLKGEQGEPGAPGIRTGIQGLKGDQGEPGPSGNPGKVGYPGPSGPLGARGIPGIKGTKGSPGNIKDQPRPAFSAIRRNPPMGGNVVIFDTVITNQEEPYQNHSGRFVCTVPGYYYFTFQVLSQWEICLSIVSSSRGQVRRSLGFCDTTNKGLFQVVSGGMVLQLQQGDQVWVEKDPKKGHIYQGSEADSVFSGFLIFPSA
Sequence of C1q (Homo sapiens) (P02746 28-253, chain 2 of 3, further chain): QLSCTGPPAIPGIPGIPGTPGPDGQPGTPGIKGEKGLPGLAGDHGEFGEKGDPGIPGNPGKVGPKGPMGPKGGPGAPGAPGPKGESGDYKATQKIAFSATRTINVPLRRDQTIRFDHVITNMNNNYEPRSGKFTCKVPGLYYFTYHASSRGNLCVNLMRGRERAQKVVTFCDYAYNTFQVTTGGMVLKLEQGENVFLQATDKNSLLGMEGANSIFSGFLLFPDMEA
Sequence of C1q (Homo sapiens) (P02747 29-245, chain 3 of 3, further chain): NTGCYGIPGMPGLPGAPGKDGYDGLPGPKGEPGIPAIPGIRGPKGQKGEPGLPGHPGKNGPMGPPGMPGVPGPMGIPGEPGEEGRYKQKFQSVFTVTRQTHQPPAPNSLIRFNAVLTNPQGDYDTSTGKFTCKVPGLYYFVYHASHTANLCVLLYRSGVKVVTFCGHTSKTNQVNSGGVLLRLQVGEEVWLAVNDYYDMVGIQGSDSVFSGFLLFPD

Q: What does the source list for “serglycin (myeloma cell-derived) (from UniProt P10124)”?
A: Kd [1]: 40 nM; Kd [2]: 19 nM
